Results on 4 molecules are retold here after PMC4856535 (Nature structural & molecular biology, 2016).

Data set [1] deals with TAMRA-labeled caspase-1^CARD-SUMO with C-terminal sortase motif (His-MBP removed by TEV protease in the assay) (human) (UniProt P29466). The experiment in a line: fluorescence polarisation. On the technique in general: Fluorescence polarisation rises when a labelled molecule tumbles more slowly, as on binding a larger partner.
Data set [2] concerns the molecule itself. Nature of the data set: SEC. (In gel filtration, larger molecules generally elute earlier.)
Data set [3] has as its target T1, His-GFP-caspase-1^CARD (wild type) (human, UniProt P29466 1-91).
T1 sequence (looked up): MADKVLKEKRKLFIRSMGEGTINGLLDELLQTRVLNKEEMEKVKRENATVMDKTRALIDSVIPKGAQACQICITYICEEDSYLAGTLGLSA
The experiment in a line: fluorescence polarisation.

A word on the Ki: it is the dissociation constant of the complex between target and ligand, obtained from inhibition or displacement. The low end stands for tighter binding, the high end for weaker binding. Turning to “His-tagged human inhibitor of CARD (INCA) (from UniProt Q5XLA6 1-110) (natural protein)”, the Ki in data set [1] was determined as 9.4 nM.

B1: His-MBP-ICEBERG (natural protein, human)
chain: ADQLLRKKRRIFIHSVGAGTINALLDCLLEDEVISQEDMNKVRDENDTVMDKARVLIDLVTGKGPKSCCKFIKHLCEEDPQLASKMGLH
B1: the binding result in data set [2] is recorded as “binds”.

B2: His-tagged human inhibitor of CARD (INCA) (natural protein, UniProt Q5XLA6 1-110, looked up)
chain: MADKVLKEKRKQFIRSVGEGTINGLLGELLETRVLSQEEIEIVKCENATVMDKARALLDSVIRKGAPACQICITYICEEDSHLAGTLGLSAGPTSGNHLTTQDSQIVLPS
In data set [3], B2 gave a Ki of 4.3 ± 1.4 nM.

B3: INCA R55E (natural protein, human, UniProt Q5XLA6 1-110, looked up)
chain: MADKVLKEKRKQFIRSVGEGTINGLLGELLETRVLSQEEIEIVKCENATVMDKAEALLDSVIRKGAPACQICITYICEEDSHLAGTLGLSAGPTSGNHLTTQDSQIVLPS
For B3, the Ki in data set [3] is roughly 1700 nM.
